Results: the DeepSol protein solubility set

Test: soluble on expression in E. coli; label from the status in PepcDB or PDB records

Row | Sequence | soluble on expression in E. coli
1 | MSLSEGTFEVGKNTFLLNGEPFVVKAAEIHYPRIPKEYWEHRIKMCKALGMNTICLYVFWNFHEPEEGRYDFAGQKDIAAFCRLAQENGMYVIVRPGPYVCAEWEMGGLPWWLLKKKDIKLREQDPYYMERVKLFLNEVGKQLADLQISKGGNIIMVQVENEYGAFGIDKPYISEIRDMVKQAGFTGVPLFQCDWNSNFENNALDDLLWTINFGTGANIDEQFKRLKELRPDTPLMCSEFWSGWFDHWGAKHETRSAEELVKGMKEMLDRNISFSLYMTHGGTSFGHWGGANFPNFSPTCTSYDYDAPINESGKVTPKYLEVRNLLGNYLPEGETLPEIPDSIPTIAIPTIKMTEMAVLFDNLPHPKESEDIRTMEAFDQGWGSILYRTSLSASDKEQTLLITEAHDWAQVFLNGKKLATLSRLKGEGVVKLPPLKEGDRLDILVEAMGRMNFGKGIYDWKGITEKVELQSDKGVELVKDWQVYTIPVDYSFARDKQYKQQENAENQPAYYRSTFNLNELGDTFLNMMNWSKGMVWVNGHAIGRYWEIGPQQTLYVPGCWLKKGENEIIILDMAGPSKAETEGLRQPILDVQRGNGAYAHRKMGEGHHHHHH | soluble
2 | VSGREPSSRIIRVSVKTPQDCHEFFLAENSNVRRFKKQISKYLHCNADRLVLIFTGKILRDQDILSQRGILDGSTVHVVVRSH | soluble
3 | METFTVKMGADSGLLQFEPANVTVHPGDTVKWVNNKLPPHNILFDDKQVPGASKELADKLSHSQLMFSPGESYEITFSSDFPAGTYTYYCAPHRGAGMVGKITVEG | soluble
4 | MIFKVGDTVVYPHHGAALIEAIETRTIKGEQKEYLVLKVAQGDLTVRVPADNAEYVGVRDVVGQEGLDKVFQVLRAPHTEEPTNWSRRYKANLEKLASGDVNKVAEVVRDLWRREQDRGLSAGEKRMLAKARQILVGELALAEGTDSDKAETILDEVLAAAS | not soluble
5 | KKTVRRILGVVEIGGSGENITKTELFKYDGISDSVVKTGICMWEEDVCQIAGITRDELMDDRINRKKVLKYMVNNNINDIRKVGDVLKQYQENPENVLKNIL | not soluble
6 | GPGSMELNQLELFVASTEHTRSDAWRYLRRLRVLDCKIEEGFDRLHEIAVQLSGTDSDGNLVDNQGNGTLQPDRKKRGRPPLCKNAFTATPYNVGQSPDSSVLLVDPAVANLHEEFRKHSRSVKRYALEREQIAEELVASGKELTEYLEARMREFRATFSISD | soluble
7 | MGSDKIHHHHHHMTETLLVTGAAGQLGRGVIRYLMDTHKVPPAKIIATTRNPENVADLAARGVVVRAADFNDATSLENAFKGADRVLIISTSDLDLKTGRRLKQHEAAVAAAKKAGVSHLLYTSMPNPEPVSPVLFAGDHYGTEQAIKASGIAYTIFRNGWYQENLFIALPHAIASGQWYTSAGDGRIAHGSRDDMAAAIAAGLASGSTDSKTYTLTGPQAYTTAEIAALVSEVTGKPLEVIQLPDEALTEGVKAAGVPEEFARVIVSFDANTRSGRIAMATDAVETLSGRKPRTLKQFLEANKAALAG | not soluble
8 | MGSDKIHHHHHHMNRVISVGFEHPKSYLDSNQSVEAKSRIDSYIDKKMDEWNKEVVYAKHLYEPSVNKEYYKRHMIEHVWRIRMSRTVQAKALHQIAKISPEAAQLYARYQDEEMLHDILFKQDALALGVTEDTIKNTEPMFATRLLMGFKYFVAEHENPLGAVAYSYLVEYVTAKITPDQVSNLKSELGSENIKGQVAHINTDLSHDHSGDMWEIVRALLFTESDIEMFIKYIDEIQDLLAMYFKELYEKTIAKNESQAA | not soluble
9 | SLEDYLQGCRAALQESRPLHVVLGNEACDLDSTVSALALAFYLAKTTEAEEVFVPVLNIKRSELPLRGDIVFFLQKVHIPESILIFRDEIDLHALYQAGQLTLILVDHHILSKSDTALEEAVAEVLDHRPIEPKHCPPCHVSVELVGSCATLVTERILQGAPEILDRQTAALLHGTIILDCVNMDLKIGKATPKDSKYVEKLEALFPDLPKRNDIFDSLQKAKFDVSGLTTEQMLRKDQKTIYRQGVKVAISAIYMDLEAFLQRSNLLADLHAFCQAHSYDVLVAMTIFFNTHNEPVRQLAIFCPHVALQTTICEVLERSHSPPLKLTPASSTHPNLHAYLQGNTQVSRKKLLPLLQEALSAYFDSMKIPSGQPETADVSREQVDKELDRASNSLISGLSQDEG | soluble
10 | MQVIKTNETFDSLDKSKLERMLDIKEAHREGHLTLEEAKERMKKEVGSISPEEFAAAEQLFKERDQDECQNEDVRTMLQLFEGLINPIRPDLPFGHPIDAYLRENDKAKELLDQADALLERTFIPNPWIELMETLMGYKLHFARKQNQLYSTLEQKGFDRPSTTMWTYDDHIRDEMNKAMSLLREKDYDSFPAAYKEMAIVLRDLMEKEELILYPTSLKLISDKEFEEMKHGDREIGFFLIDMPELDAPAKQSKEAHGQSFMAELGALLAKHGMGTGGQDDKAILDVAEGKLTLEQINLLFRHLPVDISFVDENELVCFYTDTKHRVFPRSKGVIGREVRNCHPPKSVHIVEEIIDKFRRGEQDRAEFWINKPGVFIYIVYVAIRDADGRFRGVMEMMQDCTRIRSLEGSRTLLTWDEEQSPAQGSKESESDTAGEDGIRPDTKLKSLLQRYPQLMDDLPTISSKFTLLRSPMAKVILPVATIKMMSERADIPSDMLIGKLESLIASYNKPDRSEEK | not soluble
11 | MGSDKIHHHHHHMRIEVVNVSHIFHRGTPLEKKALENVSLVINEGECLLVAGNTGSGKSTLLQIVAGLIEPTSGDVLYDGERKKGYEIRRNIGIAFQYPEDQFFAERVFDEVAFAVKNFYPDRDPVPLVKKAMEFVGLDFDSFKDRVPFFLSGGEKRRVAIASVIVHEPDILILDEPLVGLDREGKTDLLRIVEKWKTLGKTVILISHDIETVINHVDRVVVLEKGKKVFDGTRMEFLEKYDPRFFTSKMLVMRRLVLKGEDPFSMSDDELLERVCNS | not soluble
12 | MKPAAREARLPPRSPGLRWALPLLLLLLRLGQILCAGGTPSPIPDPSVATVATGENGITQISSTAESFHKQNGTGTPQVETNTSEDGESSGANDSLRTPEQGSNGTDGASQKTPSSTGPSPVFDIKAVSISPTNVILTWKSNDTAASEYKYVVKHKMENEKTITVVHQPWCNITGLRPATSYVFSITPGIGNETWGDPRVIKVITEPIPVSDLRVALTGVRKAALSWSNGNGTASCRVLLESIGSHEELTQDSRLQVNISGLKPGVQYNINPYLLQSNKTKGDPLGTEGGLDASNTERSRAGSPTAPVHDESLVGPVDPSSGQQSRDTEVLLVGLEPGTRYNATVYSQAANGTEGQPQAIEFRTNAIQVFDVTAVNISATSLTLIWKVSDNESSSNYTYKIHVAGETDSSNLNVSEPRAVIPGLRSSTFYNITVCPVLGDIEGTPGFLQVHTPPVPVSDFRVTVVSTTEIGLAWSSHDAESFQMHITQEGAGNSRVEITTNQSIIIGGLFPGTKYCFEIVPKGPNGTEGASRTVCNRTGKQI | soluble
13 | SNAMTTKRVKKMGKEEMKEMFDLVIYAFNQEPTAERQERFEKLLSHTQSYGFLIDEQLTSQVMATPFQVNFHGVRYPMAGIGYVASYPEYRGEGGISAIMKEMLADLAKQKVALSYLAPFSYPFYRQYGYEQTFEQAEYTIKTEDWPRVKRVPGTIKRVSWADGKEVIKDVYLENQRAHSGGVIRETWWLDYTLNRASKPNNQAIYYSSEGKAEGYVIYRIAAGTFEIVEWNYLTNTAFKALAGFIGSHSGSVQSFHWINGFAGKDLNDLMPTPAASVKILPYMMARIVELQTFLEKYPFQSGEKETYSLEIEDSYGPWNEGIWTITIDEQGKATVTKGAAEKEGTAALKADIQTWTQLFLGYRSAETLSFYERLQGDATIAQRLGQRLVKGMPILEDYF | soluble
14 | VGDYGPFGFDPDEFDRVIREGSEGLRDAFERIGRFLSSSGAGTGWSAIFEDLSRRSRPAPETAGEAGDGVWAIYTVDADGGARVEQVYATELDALRANKDNTDPKRKVRFLPYGIAVSVLDDPVDEAQ | soluble
15 | MGSDKIHHHHHHMNQIDRLLTIMQRLRDPENGCPWDKEQTFATIAPYTLEETYEVLDAIAREDFDDLRGELGDLLFQVVFYAQMAQEEGRFDFNDICAAISDKLERRHPHVFADSSAENSSEVLARWEQIKTEERAQKAQHSALDDIPRSLPALMRAQKIQKRCANVGFDWTTLGPVVDKVYEEIDEVMYEARQAVVDQAKLEEEMGDLLFATVNLARHLGTKAEIALQKANEKFERRFREVERIVAARGLEMTGVDLETMEEVWQQVKRQEIDL | not soluble
